Experimental data taken from paper PMC2921123 (2010).
Values belong to the molecule of their own block, whether it stands above or below them.

Columns and labels:
Assay in all cases: SPR
[1] = target: Fc portion of a human BCR μ-chain (Fcμ, amino acid residues 258-586), corresponding to Cμ2-Cμ4 (human)
[2] = target: human Igαβ heterodimer, extracellular domains fused with a leucine zipper (Igαβ-LZ) (human) (UniProt P11912)
Fcμ Fc = target: T1, Fcμ Fc (Homo sapiens, UniProt P01871)
T1 chain: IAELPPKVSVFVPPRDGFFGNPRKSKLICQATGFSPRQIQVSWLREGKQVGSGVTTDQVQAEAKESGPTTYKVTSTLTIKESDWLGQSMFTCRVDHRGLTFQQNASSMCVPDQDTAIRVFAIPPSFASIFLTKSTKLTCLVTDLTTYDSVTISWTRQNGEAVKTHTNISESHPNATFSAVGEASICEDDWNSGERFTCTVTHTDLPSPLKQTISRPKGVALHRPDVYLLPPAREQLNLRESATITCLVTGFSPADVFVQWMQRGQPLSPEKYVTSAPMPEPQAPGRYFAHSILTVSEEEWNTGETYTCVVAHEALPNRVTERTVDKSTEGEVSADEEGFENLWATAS

Fc portion of a human BCR μ-chain (Fcμ, amino acid residues 258-586), corresponding to Cμ2-Cμ4 (human), sequence (P01871 whole entry, the tested form may be a part): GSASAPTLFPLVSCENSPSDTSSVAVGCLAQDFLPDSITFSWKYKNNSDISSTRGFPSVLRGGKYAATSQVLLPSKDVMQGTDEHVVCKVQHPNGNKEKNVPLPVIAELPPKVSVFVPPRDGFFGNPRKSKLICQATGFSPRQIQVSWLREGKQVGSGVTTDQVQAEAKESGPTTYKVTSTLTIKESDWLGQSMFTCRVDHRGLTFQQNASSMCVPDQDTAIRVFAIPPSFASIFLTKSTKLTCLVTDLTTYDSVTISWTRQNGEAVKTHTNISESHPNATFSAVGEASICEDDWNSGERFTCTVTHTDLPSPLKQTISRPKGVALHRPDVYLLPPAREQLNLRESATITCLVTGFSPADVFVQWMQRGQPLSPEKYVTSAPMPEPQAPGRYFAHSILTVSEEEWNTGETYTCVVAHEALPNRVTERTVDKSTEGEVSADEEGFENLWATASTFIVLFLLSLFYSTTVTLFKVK

- fold increase of binding against the wild type [1]: 2 fold
Molecule: human Igα extracellular portion, N60A (α3) (from UniProt P11912 33-143) (domain or fragment)

- fold reduction of binding against the wild type [1]: 2 fold
Molecule: human Igβ extracellular portion, Q123A/Q124A/K125A (β4) (from UniProt P40259 26-159) (domain or fragment)

- fold reduction of binding against the wild type [1]: 6 fold
Molecule: human Igβ extracellular portion, R55A/K56A/R57A (β1) (from UniProt P40259 26-159) (domain or fragment)

- Kd [2]: > 10000 nM
Molecule: human IgM (from UniProt P01591 23-159) (antibody)

- Kd (Fcμ Fc): ~2000 nM
B1: Igαβ (protein)
chain 1: LWMHKVPASLMVSLGEDAHFQCPHNSSNNANVTWWRVLHGNYTWPPEFLGPGEDPNGTLIIQNVNKSHGGIYVCRVQEGNESYQQSCGTYLRVRQPPPRPFLDMGEGTKNRIITAEGIILLFCAVVPGTLLLFRKRWQNEKLGLDAGDEYEDENLYEGLNLDDCSMYEDISRGLQGTYQDVGSLNIGDVQLEKP
chain 2: ARSEDRYRNPKGSACSRIWQSPRFIARKRGFTVKMHCYMNSASGNVSWLWKQEMDENPQQLKLEKGRMEESQNESLATLTIQGIRFEDNGIYFCQQKCNNTSEVYQGCGTELRVMGFSTLAQLKQRNTLKDGIIMIQTLLIILFIIVPIFLLLDKDDSKAGMEEDHTYEGLDIDQTATYEDIVTLRTGEVKWSVGEHPGQE
